The subject of the series is MS2 coat protein. The experiment in a line: apparent KD of MS2 coat protein; designed switch direction (-1 OFF switch, 1 ON switch): -1; higher = weaker reporter binding. The gist of the method: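 Transcription of designed RNA switches on Illumina chips was done by stalled E. coli RNA polymerase. SNAP-549-labelled MS2 coat protein was then titrated in doubling steps from 0.7 or 1.5 nM to 3 µM, with steps of 0.8–1.5 h at the lowest and 10–20 min at the highest concentration. The per-design median over clusters of curve-fitted normalised fluorescence is reported as apparent KD.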

[1] abbreviates: input ligand: microRNA oligo, concentration not stated.
[2] abbreviates: Eterna round: R95, input ligand: microRNA oligo, concentration not stated.

For the sequence “GCAAGCUUGUCAAGAUCCCACAUGAGGAUCACCCAUGUGCAUCGUCUGAGCCCAUAGCUAGUCAUCUGCGGGUGCGU [Eternabot (Original) Solution 15] (Eterna round: R97, puzzle: Sensor, turn-off variant 1)”, the “apparent KD of MS2 coat protein” value stood at 40.3 nM (input ligand: FMN 200 uM) and 44.7 nM (input ligand: none).

Take “GCAAGCUUUUGCUCGUCUUACAUGAGGAUCACCCAUGUCGGGUGCUUGCUUGCGUCCGGCGUCUGGGCCGUGGCGGU [-31.9, -55.1 kcal, A 10%] (Eterna round: R97, puzzle: Sensor, turn-off variant 1)”: the “apparent KD of MS2 coat protein” value was 22.2 nM (input ligand: FMN 200 uM) and 21.6 nM (input ligand: none).

Consider “GCAAGGGAAGGAUAUACAUUACGACCGUCAUAGUACCUGCGACAUGAGGAUCACCCAUGUAGAAGGUCCAGCGG [EX2 C.13] (Eterna round: R97, puzzle: Exclusion 2)”, for which the “apparent KD of MS2 coat protein” value is, setting by setting: (input ligand: FMN 200 uM) 17.4 nM; (input ligand: none) 13.3 nM.

On to “GCACAGGCAGGAUAUACAUGAGGAUCACCCAUGUGAUCCCUUAAGUACAAAAGUACAAGUAGAAGGGCCUGUGC [Omei Ex3 Model Bachelor's Dilema v43] (Eterna round: R97, puzzle: Exclusion 3)”, for which the “apparent KD of MS2 coat protein” value (input ligand: FMN 200 uM) was determined as 21.2 nM and the “apparent KD of MS2 coat protein” value (input ligand: none) is 916 nM.

Consider “GCACCAUGGCUUACUAGCCGUUAAACAUGAGGAUCACCCAUGUAGGAUAUGGUCUGGAUUACAGGCCAGAAGGGCGUAAGGUGC [JL Eli 026 mod] (Eterna round: R96, puzzle: Exclusion NG 3)”, for which the “apparent KD of MS2 coat protein” value runs as follows: (input ligand: FMN 200 uM) 15.9 nM; under setting [1], 13.1 nM; (input ligand: none) 19.8 nM.

Take “GCACGGAAUGUAGGAUAUUAGUGCGAUUAGCACUGAGAAGGACAUGAGGAUCACCCAUGUAACUCAAUAAUAAACCUUCCGUGC [Eli exng1 - 045] (Eterna round: R96, puzzle: Exclusion NG 1)”: the “apparent KD of MS2 coat protein” value by setting is: (input ligand: FMN 200 uM) 11.2 nM; under setting [1], 8.85 nM; (input ligand: none) 12.2 nM.

Regarding “GCACGGAGUGUAGGAUAUCUGUGCGAUUAGCUCAGAGAAGGACACAUGAGGAUCACCCAUGUGUAACAACACAAUAAUCCGUGC [Eli exng1 - 072] (Eterna round: R96, puzzle: Exclusion NG 1)”, the “apparent KD of MS2 coat protein” value stood at 12.3 nM (input ligand: FMN 200 uM), 11.2 nM under setting [1] and 14.2 nM (input ligand: none).

As to “GCACGGAGUGUAGGAUAUCUGUGCGAUUAGCUCAGAGAAGGACACAUGAGGAUCACCCAUGUUACCUCAAUUAGCCUUCCGUGC [Eli exng1 - 032] (Eterna round: R96, puzzle: Exclusion NG 1)”, the “apparent KD of MS2 coat protein” value was found to be 30.4 nM (input ligand: FMN 200 uM), 17 nM under setting [1] and 19 nM (input ligand: none).

“GCACGGUAAGUGAGGAUAUACCUCUGGAUACAGAGGUAGAAGGCACAUGAGGAUCACCCAUGUCCAAGCCGUGC [Fiskers BMX 4 - 84] (puzzle: Brourd's mod of Exclusion 4)”: the “apparent KD of MS2 coat protein” value under setting [2] was found to be 22.8 nM.

As for “GCACUGCGAGGAUAUACAUGAGGAUCACCCAUGUGUCGGCAGCCAUGGUAGUACAAAUGUAGAAGGCGCGUAAA [EX3 #50] (Eterna round: R97, puzzle: Exclusion 3)”, the “apparent KD of MS2 coat protein” value stood at 85.6 nM (input ligand: FMN 200 uM) and 587 nM (input ligand: none).

Consider “GCACUGGCAGGAUAUACAUGAGGAUCACCCAUGUGAUCCCUUAGGUACAAAAGUACAAGUAGAAGGGCCUGUGC [Omei Ex3 Model Bachelor's Dilema v44] (Eterna round: R97, puzzle: Exclusion 3)”, for which the “apparent KD of MS2 coat protein” value (input ligand: FMN 200 uM) was found to be 52.2 nM and the “apparent KD of MS2 coat protein” value (input ligand: none) amounted to 845 nM.

“GCAGACGUAGUGAGGAUAUGCUCUACCUCGGUAGAGCAGAAGGCACAUGAGGAUCACCCAUGUGACUCCUCAUC [Omei Ex4B B18] (Eterna round: R97, puzzle: Brourd's mod of Exclusion 4)”: the “apparent KD of MS2 coat protein” value is 49.2 nM (input ligand: FMN 200 uM) and 20.1 nM (input ligand: none).

As for “GCAGAUGAAGUGAGGAUAUGCUCUACCUCGGUAGAGCAGAAGGCACAUGAGGAUCACCCAUGUGAUUCAUCUGC [Omei Ex4B B6] (Eterna round: R97, puzzle: Brourd's mod of Exclusion 4)”, the “apparent KD of MS2 coat protein” value runs as follows: (input ligand: FMN 200 uM) 35.4 nM; (input ligand: none) 17 nM.

On to “GCAGCAAACCCAAUUAAAACCACAUGAGGAUCACCCAUGUCUCAGGAUAUGGUCUGGAUUACAGGCCAGAAGGGAGAAAGCUGC [Eli exng3 - 052] (Eterna round: R96, puzzle: Exclusion NG 3)”, for which the “apparent KD of MS2 coat protein” value (input ligand: FMN 200 uM) was 16.2 nM, the “apparent KD of MS2 coat protein” value under setting [1] turned out to be 10.7 nM and the “apparent KD of MS2 coat protein” value (input ligand: none) turned out to be 17.7 nM.

As to “GCAGCAUAGUCGGAAACGACAGAACAUGAGGAUCACCCAUGUCAGGAUAUGGUCUGGAUUACAGGCCAGAAGGGACGAAGCUGC [Eli exng3 - 010] (Eterna round: R96, puzzle: Exclusion NG 3)”, the “apparent KD of MS2 coat protein” value was 13.5 nM (input ligand: FMN 200 uM), 11.4 nM under setting [1] and 16 nM (input ligand: none).

“GCAGGCGACUAGGCUCGUCUUAUUUUGAGAAGAUUGAAAACAUGAGGAUCACCCAUGUUUGUGGGAGAGUUGGAGUG [JR_SV3TOV2_Sub013] (puzzle: Sensor v3, turn-off variant 2)”: the “apparent KD of MS2 coat protein” value runs as follows: (Eterna round: R95, input ligand: FMN 200 uM) 59.4 nM; under setting [2], 73 nM; (Eterna round: R95, input ligand: none) 65.3 nM.

Take “GCAGUAUGAGUUAGGAUAUGAUGAUUUUUAUUAAAUCAGAAGGAACUUGAGGAUCACCCAAGUAAAGAAUUGGU [JR_BMEx4_Sub069] (Eterna round: R97, puzzle: Brourd's mod of Exclusion 4)”: the “apparent KD of MS2 coat protein” value runs as follows: (input ligand: FMN 200 uM) 23.3 nM; (input ligand: none) 20.4 nM.

Take “GCAGUCAAAGUGAGGAUAUCUAGAGCGAUAGCUCUAGAGAAGGCACAUGAGGAUCACCCAUGUGAUCAGACUGC [BmEx4/7-A4'1] (Eterna round: R97, puzzle: Brourd's mod of Exclusion 4)”: the “apparent KD of MS2 coat protein” value runs as follows: (input ligand: FMN 200 uM) 605 nM; (input ligand: none) 257 nM.

For “GCAGUGUCAGGAUAUUCGAGUUCGAGUGAAAGCUUGAGCUUGAAGAAGGGACAUGAGGAUCACCCAUGUGCUGU [-28.7, -27.7 kcal, A 27%, 1bis-(ca)1bis] (Eterna round: R97, puzzle: Exclusion 4)”, the “apparent KD of MS2 coat protein” value is, setting by setting: (input ligand: FMN 200 uM) 117 nM; (input ligand: none) 42.1 nM.

In the case of “GCAGUGUGAGUUAGGAUAUGAUGAUUUUUUAUUGGUCAGAAGGAACUUGAGGAUCACCCAAGUUAGGAAUUGGU [JR_BMEx4_Sub075] (Eterna round: R97, puzzle: Brourd's mod of Exclusion 4)”, the “apparent KD of MS2 coat protein” value reads like this: (input ligand: FMN 200 uM) 40.3 nM; (input ligand: none) 33.1 nM.

With “GCAGUUCGAGUUAGGAUAUGAUGUUAAUUCGGAUAUCAGAAGGAACUUGAGGAUCACCCAAGUAUAGAUGUUGC [JR_BMEx4_Sub060] (Eterna round: R97, puzzle: Brourd's mod of Exclusion 4)”, the “apparent KD of MS2 coat protein” value is, setting by setting: (input ligand: FMN 200 uM) 29.6 nM; (input ligand: none) 18.6 nM.

On to “GCAUCCAAAGUGAGGAUAUACCUCUGGAUACAGAGGUAGAAGGCACAUGAGGAUCACCCAUGUUACUAGGAUGC [Fiskers BMX 4 - 35] (puzzle: Brourd's mod of Exclusion 4)”, for which the “apparent KD of MS2 coat protein” value under setting [2] was 13.2 nM.

“GCAUGCUCCGAGGAUAUCGAAGCUAAUUAUGCACGAGAAGGCGGAACAUGAGGAUCACCCAUGUGAUGCCAAUG [Qutequen] (Eterna round: R97, puzzle: Exclusion 6)”: the “apparent KD of MS2 coat protein” value (input ligand: FMN 200 uM) was determined as 51.9 nM and the “apparent KD of MS2 coat protein” value (input ligand: none) was 21.6 nM.

Regarding “GCAUGUCUUAAGGAUAUGCUAAGGCGUGAGCCAGCAGAAGGUAAGACAUGAGGAUCACCCAUGUUUUCCUAAAA [jl-ex6-4.33 ViennaUCT mod] (Eterna round: R97, puzzle: Exclusion 6)”, the “apparent KD of MS2 coat protein” value runs as follows: (input ligand: FMN 200 uM) 68.5 nM; (input ligand: none) 18.9 nM.

As to “GCAUGUCUUAAGGAUAUGCUAAGGCGUGAGCCGGCAGAAGGUAAGACAUGAGGAUCACCCAUGUUUUCCUAAAA [jl-ex6-4.32 ViennaUCT mod] (Eterna round: R97, puzzle: Exclusion 6)”, the “apparent KD of MS2 coat protein” value (input ligand: FMN 200 uM) came out at 91.3 nM and the “apparent KD of MS2 coat protein” value (input ligand: none) amounted to 20.7 nM.

As for “GCCGAGUGAGGAUAUACAUGAGGAUCACCCAUGUAAACACGAAAGCAAGUGUCCCUCAGUAGAAGGCGCCUGGA [Aerusesxe] (puzzle: Exclusion 3)”, the “apparent KD of MS2 coat protein” value under setting [2] was 14.8 nM.

“GCCGUAAAUGUGAGGAUAUACCUAUGGAAACAUAGGUAGAAGGCACAUGAGGAUCACCCAUGUUCUCAAUCGGC [Mat - Exclusion 4 - Eli Mod - D6] (Eterna round: R97, puzzle: Brourd's mod of Exclusion 4)”: the “apparent KD of MS2 coat protein” value is, setting by setting: (input ligand: FMN 200 uM) 775 nM; (input ligand: none) 195 nM.

With “GCCUCACAUGAGGAUCACCCAUGUCAGGAUAUCUAACGCGAGGUGCAGGCACUUCGUGAGAGAAGGGACGUCAA [Iszabius] (puzzle: Exclusion 1)”, the “apparent KD of MS2 coat protein” value under setting [2] was 19.4 nM.

In the case of “GCCUCACUUGAGGAUCACCCAAGUCAGGAUAUUCACGGAACUACGUAGUAGUUCGGCCGGAGAAGGGAUUCGGG [Qubexe] (Eterna round: R97, puzzle: Exclusion 1)”, the “apparent KD of MS2 coat protein” value (input ligand: FMN 200 uM) worked out at 64.8 nM and the “apparent KD of MS2 coat protein” value (input ligand: none) worked out at 41.8 nM.

As to “GCCUCACUUGAGGAUCACCCAAGUCAGGAUAUUCACGGAACUAUGUAGCAGUUCGGCCGGAGAAGGGAUUCGGG [Areses] (Eterna round: R97, puzzle: Exclusion 1)”, the “apparent KD of MS2 coat protein” value (input ligand: FMN 200 uM) is 88.4 nM and the “apparent KD of MS2 coat protein” value (input ligand: none) amounted to 35 nM.

Turning to “GCCUCGUCAGGAUAUCUCCACGUGAGCAAGGCUCACGGGCCAGAGAAGGGACUUGAGGAUCACCCAAGUAAAAC [Ritiatso] (Eterna round: R97, puzzle: Exclusion 4)”, the “apparent KD of MS2 coat protein” value came to 428 nM (input ligand: FMN 200 uM) and 138 nM (input ligand: none).

The record behind these values is the supplement of paper PMC9170038.
